9 molecules from US20250051443A1 (NATIONAL RESEARCH COUNCIL OF CANADA, published 2025) can be followed below.

Assay [1] addresses T1, Cynomolgus CD3 (Cynomolgus, UniProt Q95LI5 22-198; Q95LI7 23-181; Q95LI8 22-171).
T1 construct: whole, on cells; also called CD3 on Cynomolgus PBMCs; CD3 on HSC-F Cynomolgus T cell line
Nature of the assay: apparent KD (KDapp), flow cytometry titration on fresh cynomolgus PBMCs. The procedure:
To characterize potential cross-reactivity of the anti-human CD3 mAbs to NHP T cells, dose response flow cytometry titration studies were performed on both freshly obtained Cynomolgus PBMCs (Comparative Medicine and Animal Resources Centre—McGill University) or the Cynomolgus derived T cell line, HSC-F (Non-Human Primate Reagent Resource—NIH). Binding studies on fresh Cynomolgus PBMCs was performed on a subset of anti-CD3 mAbs (FIG. 4) whereas the Herpesvirus saimiri immortalized Cynomolgus T cell line HSC-F was employed for further evaluations (FIGS. 5A to 5C). KDapp values were calculated using a non-linear regression model of one-site binding with Hill slope (GraphPad Prism) and tabulated (Table 3b). Similar KDapp values for anti-CD3 mAb 1E2 obtained from binding to fresh Cynomolgus PBMCs (KDapp=0.28 nM) or the HSC-F T cell line (KDapp=0.39 nM) indicated the HSC-F cell line was a suitable surrogate for ex vivo NHP T cells.
Cynomolgus PBMCs were obtained from fresh ex vivo peripheral blood via density centrifugation and cultured overnight at 37° C./5% CO₂ in the presence of human recombinant IL2 (20 IU/mL; Novartis). Starting from 100 nM, graded doses of the anti-CD3 mAbs were incubated with 100K NHP PBMCs for 0.5 hours at 4° C. in flow staining buffer (SB; PBS/1% BSA/0.01% NaN3) in 96 w V-bottom plates. Following plate washing with SB (150 μL), cell pellets were resuspended in a 5 µg/mL solution of goat (Fab′)₂ anti-mouse IgG (H+L)− APC secondary antibody in SB, incubated at 4° C. (30 min.), washed 1× with SB, and resuspended for flow analysis. The commercial NHP cross-reactive SP34.2 anti-CD3 mAb (BD Biosciences), anti-human OKT-3 IgG2a (Biolegend—data not shown) and non-specific mIgG were employed as controls. 20K live events were acquired on a BD LSRFortessa flow analyzer and mean fluorescence intensities (MFI) calculated after subtraction of secondary antibody alone values. Using GraphPad Prism software, the data were analyzed using a one site specific binding with Hill slope non-linear regression model to calculate KDapp and BMax values (See Table 2).

For assay [2], the target named is T1, Cynomolgus CD3. Put plainly: apparent KD (KDapp), flow cytometry titration on cynomolgus HSC-F T cell line. The method in brief: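 HSC-F cells (Herpesvirus saimiri-immortalized, cultured with 40 IU/mL human IL2), 100K/well, incubated with graded anti-CD3 mAb doses from 100 nM, 2 h, 4 °C; detected with APC anti-mouse IgG (5 μg/mL, 30 min, 4 °C). Background-subtracted MFI fitted by one-site binding with Hill slope for KDapp.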
A general note: Flow cytometry measures light scatter and fluorescence of single cells or particles in a stream.

Assay [3] concerns the target T1, Cynomolgus CD3. Put plainly: apparent KD (KDapp), flow cytometry titration on fresh cynomolgus PBMCs; second value in brackets, not explained.

T1 sequence (Q95LI5 22-198, chain 1 of 3): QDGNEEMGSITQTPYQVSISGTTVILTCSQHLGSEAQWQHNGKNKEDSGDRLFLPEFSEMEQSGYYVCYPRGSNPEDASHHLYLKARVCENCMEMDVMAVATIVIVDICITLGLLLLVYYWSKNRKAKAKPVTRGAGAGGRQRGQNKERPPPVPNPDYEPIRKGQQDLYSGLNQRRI
T1 sequence (Q95LI7 23-181, chain 2 of 3): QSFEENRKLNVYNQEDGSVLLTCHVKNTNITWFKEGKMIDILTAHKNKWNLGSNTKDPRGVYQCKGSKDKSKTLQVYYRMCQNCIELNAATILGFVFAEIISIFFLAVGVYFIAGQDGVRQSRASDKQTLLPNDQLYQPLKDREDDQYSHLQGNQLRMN
T1 sequence (Q95LI8 22-171, chain 3 of 3): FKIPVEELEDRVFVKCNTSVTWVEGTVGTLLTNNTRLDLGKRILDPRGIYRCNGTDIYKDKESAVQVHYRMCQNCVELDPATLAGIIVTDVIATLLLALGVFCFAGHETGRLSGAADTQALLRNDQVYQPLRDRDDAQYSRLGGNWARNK

B1: F282-2D5 (antibody, V domains shown)
VH: QVQLQQPGTELVKPGASVKLSCKASGYTFTSYWMHWVKQRPGQGLEWIGNINPSNGGTNYNENFKTKATLTVDKSSSTAYMQLSSLTSEDSAVYYCARDRSGQYYFDYWGQGTTLTVSS
VL: DIVMSQSPSSLAVSAGEKVTMSCKSSQSLLNSRTRKNYLAWYQQKPGQSPKLLIYWASTRESGVPDRFTGSGSGTDFTLTISSVQAEDLAVYYCIQSYHLRTFGGGTILEIK
notes: also called F282-2D5-2
With B1, in the assay with Cynomolgus CD3 [1], the Kd was found to be 0.11 nM.

B2: F332-7C9 (antibody, mouse IgG2a, V domains shown)
VH: QVQLQQSGPELVKPGASVRISCKASGYTFTSHYLHWVKQRPGQGFEWIGWIYPGDGNTRYNEKFKDRATLTADKSSSTAYLHLSSLTSEDSAVYFCARDAGYYFDYWGQGTTLAVSS
VL: DIVMSQSPSSLAVSAGEKVTMSCKSSQSLLNSRTRKNYLAWYQQKPGQSLKVLIYWASTRESGVPDRFTGSGSGTDFTLTISSVQAEDLAVYYCKQSYSLRTFGGGTKLEIK
notes: also called F332-7C9-2; F332-7C9 (5C7, 7D10)
Consider B2, for which, in the assay with Cynomolgus CD3 [2], the Kd was 0.36 nM.

B3: F332-7C5 (antibody, mouse IgG2a, V domains shown)
VH: QVQLQQPGAELGKPGTSVKLSCKASGYTFTSYWMHWVKQRPGQGLEWIGNINPSSGITNYNERFKNKATLTVDKSSTTAYMQLSILTSEDSAVYYCSRDISGQYYFNFWGQGTTLTVSS
VL: DIVMSQSPSSLAVSAGEKVTMSCKSSQSLLNSRTRKNYLAWYQQKPGQSPKLLIYWASTRESGVPDRFTGTGSGTDFTLTISSVQAEDLAVYYCKQSYNLRTFGGGTKLEIK
notes: also called F332-7C5-2; F332-7C5 (5E12, 10A8)
For B3, in the assay with Cynomolgus CD3 [2], the Kd was 0.37 nM.

B4: F332-1C9 (antibody, mouse IgG2a, V domains shown)
VH: QVQLQQPGAELGKPGTSVNLSCKASGYTFTSYWMHWVKQRPGQGLDWIGNINPNSGTTNYNEKFKSKATLTVDKSSSTAYMQLSTLTSEDSAVYYCTRDISGQYYFDYWGQGTSLTVSS
VL: DIVMSQSPSSLAVSAGEKVTMSCKSSQSLLNSRTRKNYLAWYQQKPGQSPKLLIYWASTRESGVPDRFTGSGSGTDFTLIISSVQAEDLAVYYCKQSYSLRTFGGGTKLEIK
notes: Sister clones 1A10, 5H8, 8B11 share the same entries; also called F332-1C9-2; F332-1C9 (1A10, 5H8, 8B11)
For B4, the Kd was 0.25 nM with Cynomolgus CD3 [1] and 0.26 nM with Cynomolgus CD3 [3].

B5: F332-5F2 (antibody, mouse IgG2b, V domains shown)
VH: QVQLQQPGAELGKPGTSVKLSCKASGYTFTSYWMHWVKQRPGQGLEWIGNINPNGGDSNYNEKFKSKATLTVDKSSSTAYMQLSTLTSEDSAVYYCTRDISGQYYFDFWGQGTSLTVFS
VL: DILMSQSPSSLAVSAGEQVTMSCKSSQSLLNSRTRKNYLAWYQQKPGQSPKLLIFWASTRKSGVPDRFTGSGSGTYFTLTISSVQAEDLAVYYCTQSYNLRTFGGGTKLEIK
notes: also called F332-5F2-2; F332-5F2 (6G8, 13A3)
As for B5, the Kd with Cynomolgus CD3 [2] stood at 0.4 nM.

B6: F332-4D6 (antibody, mouse IgG2a, V domains shown)
VH: QVQLQQSGAELGKPGTSVKLSCKASGYTFTSYWIHWVKQRPGQGLEWIGNINPNSGSTNYNEKFKRKATLTADKSSSTAYMQLSTLTSEDFAVYYCTRDTSGQYYFDYWGQGTTLTVSS
VL: DIVMSQSPSSLAVSAGEKVTMSCKSSQSLLNSRTRKNYLAWYQQKPGQSPKVLIYWASTRESGVPDRFTGSGSGTDFTLTISSVQAEDLAVYYCKQSYHLRTFGGGTKLEIK
notes: also called F332-4D6-2; F322-4D6
Turning to B6, in the assay with Cynomolgus CD3 [1], the Kd was determined as 0.15 nM.

B7: F332-1E2 (antibody, mouse IgG2a, V domains shown)
VH: QVQLQQPGAELGKPGTSVKLSCKASGYTFTSYWIHWVKQRPGQGLEWVGNINPNSGSINYNEKFKNKATLTVDKSSSTAYMQLSTLTSEDFAVYYCTRDTSGQYYFDYWGQGTTLTVSS
VL: DIVMSQSPSSLAVSAGERVTMSCKSSQSLLNSRTRKNYLAWYQQKPGQSPKLLIYWASTRESGVPDRFTGSGSGTDFTLTISSVQAEDLAVYYCIQSYHLRTFGGGTKLEIK
notes: Sister clone 8C5 shares the same entries; also called F332-1E2-2; F332-1E2 (8C5)
For the molecule B7, the figures for the Kd with Cynomolgus CD3 [1] and with Cynomolgus CD3 [2] were 0.28 nM and 0.39 nM, respectively.

B8: F332-3E9 (antibody, mouse IgG2a, V domains shown)
VH: QVQLQQPGAELGKPGTSVKLSCKASGYTFTSYWIHWLKQRPGQGLEWIGNINPNGGSINCNEKFTTKATLTIDKSSSTAYMQLSTLTSEDFAVYYCTRDTSGQYYFDYWGQGTTLTVSS
VL: DIMMSQSPSSLAVSAGEKVTMSCKSSQSLLNSRTRKNYLAWYQQKPGQSPKLLIYWASTRESGVPDRFTGSGSGTDFTLTISSVQAEDLAVYYCTQSYHLRTFGGGTKLEIK
notes: also called F332-3E9-2; F332-3E9 (12G4)
As for B8, the Kd in the assay with Cynomolgus CD3 [1] is 0.21 nM.

B9: F332-6D7 (antibody, mouse IgG2a, V domains shown)
VH: QVQLQQPGAELGKPGTSVNLSCKASGYTFTSYWMHWVKQRPGQGLDWIGNINPNSGTTNYNEKFKSKATLTVDKSSSTAYMQLSTLTSEDSAVYYCTRDISGQYYFDYWGQGTSLTVSS
VL: DIVMSQSPSSLAVSAGEKVTMSCKSSQSLLNSRTRKNYLAWYQQKPGQSPKLLIYWASTRESGVPDRFTGSGSGTDFTLTISSVQAEDLAVYYCKQSYSLRTFGGGSKLEIK
notes: also called F332-6D7-2; F332-6D7 (7G4)
Consider B9, for which, in the assay with Cynomolgus CD3 [2], the Kd stood at 0.27 nM.
